The labels stand for the following.
B1: Antibody 16, scFv (scFv, V domains shown)
VH: QVQLVQSGAEVKKPGSSVKVSCKASGGTFSSYAISWVRQAPGQGLEWMGGIIPTFGTANYAQKFQGRVTITADESTSTAYMELSSLRSEDTAVYYCAREKRQWLEGHFDYWGRGTLVTVSS
VL: DIQMTQSPSTLSASVGDRVTITCRASESIYHSLAWYQQKPGKAPKLLIYKASSLASGVPSRFSGSRSGTEFTLTISSLQPDDFATYYCQQYSNYPLTFGGGTKVEIK
B2: Antibody 18, scFv (scFv, V domains shown)
VH: B1 VH with V5Q, F64L, S85G, L116P
VL: B1 VL with T10F, V15I, S28G, S32A, K50R, V58A, R66G, E70D, V104L
B3: Antibody 01, IgG1, not germlined (antibody, V domains shown)
VH: B1 VH with T54I
VL: B1 VL with S28G, H31R, R66G
B4: Antibody 15, scFv (scFv, V domains shown)
VH: B1 VH with V5Q, S85G, L116P
VL: DIQMAQSPSFLSASIGDRVTITCRASEGIYHNLAWYQQKPGKAPKLLIYRASSLASGAPSRFSGSGSGTDFTLTISSLQPDDFATYYCQQYSNYPLTFGGGTKLEIR
B5: Antibody 02, IgG1, not germlined (antibody, V domains shown)
VH: B1 VH
VL: B1 VL with S28G, R66G, N93D
B6: Antibody 10, scFv (scFv, V domains shown)
VH: B1 VH with V5Q, L116P
VL: B4 VL with A5T, T20A, N32S, K103R, R107K
B7: Antibody 01, scFv (scFv, V domains shown)
VH: B1 VH with T54I
VL: B1 VL with S28G, H31R, R66G
B8: Antibody 09, scFv (scFv, V domains shown)
VH: B1 VH with V5Q, T54A, G56D, S85G, L116P
VL: B4 VL with A5T, R24Q, R107K
B9: Antibody 14, scFv (scFv, V domains shown)
VH: B1 VH with V5Q, S85G
VL: B4 VL with A5T, L73F, R107K
B10: Antibody 20, scFv (scFv, V domains shown)
VH: B1 VH with V5Q
VL: B1 VL with S28G, S32E, K50R, N93D
B11: Antibody 27, scFv (scFv, V domains shown)
VH: B1 VH with V5Q, T28A, S85G, L116P
VL: B4 VL with A5T, R107K
B12: Antibody 03, IgG4, not germlined (antibody, V domains shown)
VH: B1 VH with V5Q, S85G, L116P
VL: B4 VL with A5T, H31R, N32S, R50K, S77G, R107K
B13: Antibody 02, IgG4, not germlined (antibody, V domains shown)
VH: B1 VH
VL: B1 VL with S28G, R66G, N93D
notes: whole IgG4; also called Ab 02
B14: Antibody 01, IgG4, not germlined (antibody, V domains shown)
VH: B1 VH with T54I
VL: B1 VL with S28G, H31R, R66G
notes: whole IgG4; also called Ab 01

Numbering of substitutions follows the chain as printed.

One assay deals with T1, human PAI-1, active, wild-type, non-glycosylated (E. coli-derived) (human, UniProt P05121 24-402). Nature of the assay: cell-based or functional assay.
Turning to B1, the “IC50 chromogenic (FIG. 2a)” value is 3.6 nM.

The target of another assay is T2, cynomolgus PAI-1 (cynomolgus, UniProt P05121 24-402 (human entry), limits assumed). Nature of the assay: cell-based or functional assay.
With B1, the “IC50 chromogenic (FIG. 2b)” value came to 0.8 nM.

A further assay concerns the target T3, rat PAI-1 (rat, UniProt P20961 24-402).
T3 sequence: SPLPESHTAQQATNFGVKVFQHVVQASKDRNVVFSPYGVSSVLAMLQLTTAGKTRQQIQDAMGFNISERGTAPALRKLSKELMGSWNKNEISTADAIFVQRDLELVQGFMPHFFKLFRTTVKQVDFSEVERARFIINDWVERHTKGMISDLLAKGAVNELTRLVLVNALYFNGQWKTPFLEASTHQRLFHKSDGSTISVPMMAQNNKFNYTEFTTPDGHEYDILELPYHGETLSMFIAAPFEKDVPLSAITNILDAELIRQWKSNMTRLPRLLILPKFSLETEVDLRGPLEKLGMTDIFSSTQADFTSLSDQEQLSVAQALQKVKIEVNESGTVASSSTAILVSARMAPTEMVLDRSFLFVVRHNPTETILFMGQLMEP
Nature of the assay: cell-based or functional assay.
B2: the “fold higher IC50 in the rat chromogenic assay, against the human assay” value was approximately 180 fold.

A further assay deals with T1, human PAI-1, active, wild-type, …. The assay can be described thus: cell-based or functional assay. The source holds these as a separate data set.
Turning to B3, the IC50 chromogenic was found to be 1.5 nM.
For the molecule B4, the IC50 chromogenic amounted to 7.2 nM.
For the molecule B2, the IC50 chromogenic was found to be 1.3 nM.
Same read-out and setting: the result for B5 reads 1.6 nM; that for B6, 2.2 nM; that for B7, 3.4 nM.

The next assay deals with T2, cynomolgus PAI-1. The assay can be described thus: cell-based or functional assay. The source holds these as a separate data set.
As to B3, the IC50 chromogenic is 0.7 nM and the IC50 ratio cyno/human turned out to be 0.4.
As to B4, the IC50 chromogenic was 2.2 nM and the IC50 ratio cyno/human was determined as 0.3.
In turn, B8 registered an IC50 chromogenic of 0.7 nM.
With B2, the IC50 chromogenic worked out at 0.5 nM and the IC50 ratio cyno/human was found to be 0.4.
B9 returned an IC50 chromogenic of 0.8 nM.
B10 came in with an IC50 chromogenic of 1.3 nM.
On to B11, for which the IC50 chromogenic came to 2.2 nM.
With B6, the IC50 chromogenic was 0.5 nM and the IC50 ratio cyno/human was determined as 0.2.
On to B12, for which the IC50 chromogenic came to 0.5 nM.
Take B7: the IC50 chromogenic is 1.2 nM and the IC50 ratio cyno/human came out at 0.4.

For the next assay, the target named is T3, rat PAI-1. The assay can be described thus: cell-based or functional assay. This is another data set of the same source.
As to B3, the IC50 chromogenic came out at 99.3 nM and the IC50 ratio rat/human was determined as 66.2.
The corresponding values for B4 are 64.2 nM and 8.9.
B8: the IC50 chromogenic is 29.7 nM.
For the molecule B2, the IC50 chromogenic came to 238 nM and the IC50 ratio rat/human was determined as 190.
With B9, the IC50 chromogenic is 23.1 nM.
On to B5, for which the IC50 chromogenic was 510 nM and the IC50 ratio rat/human was determined as 317.
Molecule B11 showed an IC50 chromogenic of 49.8 nM.
Take B6: the IC50 chromogenic came out at 296 nM and the IC50 ratio rat/human is 132.
As to B1, the IC50 chromogenic was 5.6 nM.
Regarding B7, the IC50 chromogenic came out at 208 nM and the IC50 ratio rat/human came to 60.5.

A further assay has as its target T4, mouse PAI-1 (mouse, UniProt P22777 24-401).
T4 sequence: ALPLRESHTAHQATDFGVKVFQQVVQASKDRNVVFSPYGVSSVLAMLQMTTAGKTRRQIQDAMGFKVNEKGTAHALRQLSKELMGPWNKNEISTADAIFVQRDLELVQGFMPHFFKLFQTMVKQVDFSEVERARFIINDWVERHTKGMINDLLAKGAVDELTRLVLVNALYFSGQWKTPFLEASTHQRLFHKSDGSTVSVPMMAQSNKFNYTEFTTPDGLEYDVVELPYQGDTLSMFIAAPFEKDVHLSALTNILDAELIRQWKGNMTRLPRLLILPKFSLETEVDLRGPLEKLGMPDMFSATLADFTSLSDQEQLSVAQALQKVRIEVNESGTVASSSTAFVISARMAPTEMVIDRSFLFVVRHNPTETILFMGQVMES
The assay can be described thus: cell-based or functional assay.
On to B3, for which the IC50 chromogenic worked out at 30 nM and the IC50 ratio mouse/human stood at 20.
For B4, the IC50 chromogenic amounted to 66.9 nM and the IC50 ratio mouse/human is 9.3.
For B2, the IC50 chromogenic is 319 nM and the IC50 ratio mouse/human was found to be 255.
The corresponding values for B5 are 167 nM and 104.
Take B10: the IC50 chromogenic was 4.9 nM.
Take B6: the IC50 chromogenic is 334 nM and the IC50 ratio mouse/human was 149.
In turn, B1 displayed an IC50 chromogenic of 4.3 nM.
On to B12, for which the IC50 chromogenic came to 12.9 nM.
Take B7: the IC50 chromogenic was found to be 28.3 nM and the IC50 ratio mouse/human was determined as 8.2.

A further assay concerns the target glycosylated active human PAI-1 produced by CHO cells (human, UniProt P05121 24-402, N-glycosylated (CHO-produced)). The assay can be described thus: cell-based or functional assay.
Consider B3, for which the “IC50 chromogenic, hu glyco” value is 1.7 nM.
B5: the “IC50 chromogenic, hu glyco” value is 1.5 nM.

Another assay has as its target T1, human PAI-1, active, wild-type, …. Nature of the assay: cell-based or functional assay. The source holds these as a separate data set.
As for B3, the “IC50 HT-1080 Exo PAI-1” value was determined as 11.2 nM.
Still for that read-out and setting: the result for B4 reads 36 nM; that for B8, 23 nM.
For the molecule B9, the “IC50 HT-1080 Exo PAI-1” value is 28 nM.
Turning to B5, the “IC50 HT-1080 Exo PAI-1” value turned out to be 8.7 nM.
Turning to B10, the “IC50 HT-1080 Exo PAI-1” value stood at 19.1 nM.
For the molecule B11, the “IC50 HT-1080 Exo PAI-1” value was 18.8 nM.
For the molecule B1, the “IC50 HT-1080 Exo PAI-1” value was determined as 16.9 nM.
Take B12: the “IC50 HT-1080 Exo PAI-1” value was 9.5 nM.
As for B7, the “IC50 HT-1080 Exo PAI-1” value turned out to be 23.9 nM.

Another assay has as its target T3, rat PAI-1. The assay can be described thus: cell-based or functional assay. The source holds these as a separate data set.
For B4, the “IC50 HT-1080 Exo PAI-1” value was 57 nM.
For the molecule B8, the “IC50 HT-1080 Exo PAI-1” value worked out at 52.7 nM.
Same read-out and setting: the result for B2 reads 37 nM; that for B9, 52 nM; that for B10, 42.4 nM.
On to B11, for which the “IC50 HT-1080 Exo PAI-1” value stood at 33.8 nM.
For B1, the “IC50 HT-1080 Exo PAI-1” value worked out at 52.6 nM.

The target of another assay is T4, mouse PAI-1. Nature of the assay: cell-based or functional assay. This is another data set of the same source.
With B3, the “IC50 HT-1080 Exo PAI-1” value was found to be 15.8 nM.
As for B4, the “IC50 HT-1080 Exo PAI-1” value is 37 nM.
Same read-out and setting: the result for B8 reads 21 nM; that for B9, 22 nM; that for B5, 10.9 nM.
Consider B10, for which the “IC50 HT-1080 Exo PAI-1” value is 18.1 nM.
Still for that read-out and setting: the result for B11 reads 16.4 nM.
As for B1, the “IC50 HT-1080 Exo PAI-1” value was determined as 17.6 nM.
Consider B7, for which the “IC50 HT-1080 Exo PAI-1” value is 34.5 nM.

In the next assay the target is T5, rabbit PAI-1 (rabbit).
T5 chain: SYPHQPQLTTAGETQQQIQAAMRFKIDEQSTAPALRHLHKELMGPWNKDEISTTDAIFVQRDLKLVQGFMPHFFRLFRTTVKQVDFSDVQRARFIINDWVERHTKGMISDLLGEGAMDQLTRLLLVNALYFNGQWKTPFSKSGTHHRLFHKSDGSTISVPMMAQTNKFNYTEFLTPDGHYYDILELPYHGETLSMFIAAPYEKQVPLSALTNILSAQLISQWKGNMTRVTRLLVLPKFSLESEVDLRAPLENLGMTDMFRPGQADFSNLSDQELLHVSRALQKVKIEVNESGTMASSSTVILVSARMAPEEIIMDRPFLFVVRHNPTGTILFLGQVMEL
Nature of the assay: competition ELISA (DELFIA), IgG coated, competitor titrated against biotinylated active human PAI-1.
With B13, the IC50 ratio rabbit/wt was 4.8.
As for B14, the IC50 ratio rabbit/wt amounted to 9.

Values taken from patent US20120114652A1 (AbbVie / Abbott, published 2012).
